# According to IntAct's records for PubMed 25752541:
# B1: Ankyrin repeat family A protein 2 (Homo sapiens), Q9H9E1 (parent)
# chain: MDTSTNLDIGAQLIVEECPSTYSLTGMPDIKIEHPLDPNSEEGSAQGVAMGMKFILPNRFDMNVCSRFVKSLNEEDSKNIQDQVNSDLEVASVLFKAECNIHTSPSPGIQVRHVYTPSTTKHFSPIKQSTTLTNKHRGNEVSTTPLLANSLSVHQLAAQGEMLYLATRIEQENVINHTDEEGFTPLMWAAAHGQIAVVEFLLQNGADPQLLGKGRESALSLACSKGYTDIVKMLLDCGVDVNEYDWNGGTPLLYAVHGNHVKCVKMLLESGADPTIETDSGYNSMDLAVALGYRSVQQVIESHLLKLLQNIKE
# partner: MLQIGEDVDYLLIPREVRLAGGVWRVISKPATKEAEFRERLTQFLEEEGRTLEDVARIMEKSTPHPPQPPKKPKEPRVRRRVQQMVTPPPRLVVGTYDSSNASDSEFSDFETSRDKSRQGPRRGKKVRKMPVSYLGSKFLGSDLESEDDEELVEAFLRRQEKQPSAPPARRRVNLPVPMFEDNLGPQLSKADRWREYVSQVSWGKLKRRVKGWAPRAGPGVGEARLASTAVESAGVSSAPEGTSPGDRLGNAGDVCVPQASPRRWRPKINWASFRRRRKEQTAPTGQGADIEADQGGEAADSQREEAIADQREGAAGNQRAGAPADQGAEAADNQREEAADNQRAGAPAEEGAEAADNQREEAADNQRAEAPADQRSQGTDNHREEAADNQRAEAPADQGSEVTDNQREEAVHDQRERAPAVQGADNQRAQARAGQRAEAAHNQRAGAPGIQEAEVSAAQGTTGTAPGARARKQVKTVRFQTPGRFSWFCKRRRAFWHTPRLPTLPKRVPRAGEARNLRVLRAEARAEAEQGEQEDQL
# B2: Coiled-coil domain-containing protein 8 (Homo sapiens), Q9H0W5 (parent)
# chain: B1 partner
# partner: B1 chain
# Variants of: B1
# Conditions: with ccdc8_human CCDC8, Q9H0W5
row,Variant,effect of a mutation on the interaction
1,MDTSTNLDIGAQLIVEECPSTYSLTGMPDIRIEHPLDPNSEEGSAQGVAMGMKFILPNRFDMNVCSRFVKSLNEEDSKNIQDQVNSDLEVASVLFKAECNIHTSPSPGIQVRHVYTPSTTKHFSPIKQSTTLTNKHRGNEVSTTPLLANSLSVHQLAAQGEMLYLATRIEQENVINHTDEEGFTPLMWAAAHGQIAVVEFLLQNGADPQLLGKGRESALSLACSKGYTDIVKMLLDCGVDVNEYDWNGGTPLLYAVHGNHVKCVKMLLESGADPTIETDSGYNSMDLAVALGYRSVQQVIESHLLKLLQNIKE [K31R],with no effect
2,MDTSTNLDIGAQLIVEECPSTYSLTGMPDIKIEHPLDPNSEEGSAQGVAMGMKFILPNRFDMNVCSRFVKSLNEEDSKNIQDQVNSDLEVASVLFKAECNIHTSPSPGIQVRHVYTPSTTKHFSPIKQSTTLTNKHRGNEVSTTPLLANSLSVHQLAAQGEMLYLATRIEQENVINHTDEEGFTPLMAAAAHGQIAVVEFLLQNGADPQLLGKGRESALSLACSKGYTDIVKMLLDCGVDVNEYDWNGGTPLLYAVHGNHVKCVKMLLESGADPTIETDSGYNSMDLAVALGYRSVQQVIESHLLKLLQNIKE [W188A],disrupting interaction strength

# Variants of: B2
# Conditions: with anra2_human ANKRA2, Q9H9E1
row,Variant,effect of a mutation on the interaction
1,MLQIGEDVDYLLIPREVRLAGGVWRVISKPATKEAEFRERLTQFLEEEGRTLEDVARIMEKSTPHPPQPPKKPKEPRVRRRVQQMVTPPPRLVVGTYDSSNASDSEFSDFETSRDKSRQGPRRGKKVRKMPVSYLGSKFLGSDLESEDDEELVEAFLRRQEKQPSAPPARRRVNLPVPMFEDNLGPQLSKADRWREYVSQVSWGKLKRRVKGWAPRAGPGVGEARLASTAVESAGVSSAPEGTSPGDRLGNAGDVCVPQASPRRWRPKINWASFRRRRKEQTAPTGQGADIEADQGGEAADSQREEAIADQREGAAGNQRAGAPADQGAEAADNQREEAADNQRAGAPAEEGAEAADNQREEAADNQRAEAPADQRSQGTDNHREEAADNQRAEAPADQGSEVTDNQREEAVHDQRERAPAVQGADNQRAQARAGQRAEAAHNQRAGAPGIQEAEVSAAQGTTGTAPGARARKQVKTVRFQTPGRFSWFCKRRRAFWHTPRLATLPKRVPRAGEARNLRVLRAEARAEAEQGEQEDQL [P503A],disrupting interaction strength
2,MLQIGEDVDYLLIPREVRLAGGVWRVISKPATKEAEFRERLTQFLEEEGRTLEDVARIMEKSTPHPPQPPKKPKEPRVRRRVQQMVTPPPRLVVGTYDSSNASDSEFSDFETSRDKSRQGPRRGKKVRKMPVSYLGSKFLGSDLESEDDEELVEAFLRRQEKQPSAPPARRRVNLPVPMFEDNLGPQLSKADRWREYVSQVSWGKLKRRVKGWAPRAGPGVGEARLASTAVESAGVSSAPEGTSPGDRLGNAGDVCVPQASPRRWRPKINWASFRRRRKEQTAPTGQGADIEADQGGEAADSQREEAIADQREGAAGNQRAGAPADQGAEAADNQREEAADNQRAGAPAEEGAEAADNQREEAADNQRAEAPADQRSQGTDNHREEAADNQRAEAPADQGSEVTDNQREEAVHDQRERAPAVQGADNQRAQARAGQRAEAAHNQRAGAPGIQEAEVSAAQGTTGTAPGARARKQVKTVRFQTPGRFSWFCKRRRAFWHTPRLPALPKRVPRAGEARNLRVLRAEARAEAEQGEQEDQL [T504A],disrupting interaction strength
